Laboratory results taken from patent publication US20240200091A1, “USE OF PROTOPORPHYRINOGEN OXIDASE” (BEIJING DABEINONG BIOTECHNOLOGY CO., LTD., priority 2021, published 2024).

Experiments:
Assay type in all cases: in vivo
Conditions in all cases: 7 DAT, number of plants of 24 per genotype, grades
[1] = system: Arabidopsis thaliana T1 plants; assay: oxyfluorfen tolerance of transgenic Arabidopsis thaliana T1 plants (spray, grade of pesticide damage)
Method in brief: (§1)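 Read-out: injury grade at 7 DAT from injured vs total leaf area (0 = as water-sprayed; 1 = <10%; 3 = 100%); grades 0–1 were rated highly resistant. Plants were 18-day-old glufosinate-selected PPO-transgenic T1 lines plus controls, n = 24 per genotype. Doses: saflufenacil 25/100, sulfentrazone 450/900, flumioxazin 60/240, oxyfluorfen 180/720 g ai/ha.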

[2] = system: Arabidopsis thaliana T1 plants; assay: saflufenacil tolerance of transgenic Arabidopsis thaliana T1 plants (spray, grade of pesticide damage)
Method in brief: as §1

[3] = system: Arabidopsis thaliana T1 plants; assay: flumioxazin tolerance of transgenic Arabidopsis thaliana T1 plants (spray, grade of pesticide damage)
Method in brief: as §1

[4] = system: Arabidopsis thaliana T1 plants; assay: sulfentrazone tolerance of transgenic Arabidopsis thaliana T1 plants (spray, grade of pesticide damage)
Method in brief: as §1

Molecule | The grade of pesticide damage/plant: grade 0 ([1]; oxyfluorfen 180 g ai/ha (1×)) [plant] | The grade of pesticide damage/plant: grade 1 ([1]; oxyfluorfen 180 g ai/ha (1×)) [plant] | The grade of pesticide damage/plant: grade 2 ([1]; oxyfluorfen 180 g ai/ha (1×)) [plant] | The grade of pesticide damage/plant: grade 3 ([1]; oxyfluorfen 180 g ai/ha (1×)) [plant] | The grade of pesticide damage/plant: grade 0 ([1]; oxyfluorfen 720 g ai/ha (4×)) [plant] | The grade of pesticide damage/plant: grade 1 ([1]; oxyfluorfen 720 g ai/ha (4×)) [plant] | The grade of pesticide damage/plant: grade 2 ([1]; oxyfluorfen 720 g ai/ha (4×)) [plant] | The grade of pesticide damage/plant: grade 3 ([1]; oxyfluorfen 720 g ai/ha (4×)) [plant] | The grade of pesticide damage/plant: grade 0 ([2]; saflufenacil 25 g ai/ha (1×)) [plant] | The grade of pesticide damage/plant: grade 1 ([2]; saflufenacil 25 g ai/ha (1×)) [plant] | The grade of pesticide damage/plant: grade 2 ([2]; saflufenacil 25 g ai/ha (1×)) [plant] | The grade of pesticide damage/plant: grade 3 ([2]; saflufenacil 25 g ai/ha (1×)) [plant] | The grade of pesticide damage/plant: grade 0 ([2]; saflufenacil 100 g ai/ha (4×)) [plant] | The grade of pesticide damage/plant: grade 1 ([2]; saflufenacil 100 g ai/ha (4×)) [plant] | The grade of pesticide damage/plant: grade 2 ([2]; saflufenacil 100 g ai/ha (4×)) [plant] | The grade of pesticide damage/plant: grade 3 ([2]; saflufenacil 100 g ai/ha (4×)) [plant] | The grade of pesticide damage/plant: grade 0 ([3]; flumioxazin 60 g ai/ha (1×)) [plant] | The grade of pesticide damage/plant: grade 1 ([3]; flumioxazin 60 g ai/ha (1×)) [plant] | The grade of pesticide damage/plant: grade 2 ([3]; flumioxazin 60 g ai/ha (1×)) [plant] | The grade of pesticide damage/plant: grade 3 ([3]; flumioxazin 60 g ai/ha (1×)) [plant] | also measured
PPO7A: nucleotide sequence encoding microbial protoporphyrinogen oxidase PPO7 (SEQ ID NO:7), Arabidopsis thaliana/soybean common codon usage bias (nucleic acid, The nucleotide sequence of PPO7A) DNA: ATGGATAAGATATTAGTCCTGTACAGTAGTCAAGATGGGCAGACGAGGAAGATTGTTGATGCAATGCTTGAAGAAATCTCTGGTTGTGATGTTGTGATTCAAGACTTGCACACACTACCGAAATGCAACCTATCCAAATATGCGAAAGTGTTGATTGGTGCTTCCATAAGGTATGGAAACTTCCATCCTTCTCTTCTCAGCTTCATCAATGCTCATCATGAACAACTTGAGGTTGCTAATGCGGCCTTCTTCTGTGTAAATCTCACTGCCCGAAAACCTGAGAAGCAAACTCCCCAGACAAACGCTTACATGAAGAAGTTTTTACGCTTATCACCATGGAAACCAAAGACCCTTGGAGTGTTTGCAGGAGCTTTGCAATATTCAAGATACAATTGGTGGCAAACCCGTATCATTCAGCTGATAATGAAAATGACTGGTGGCTCAACAGACACATCTCAGGATTTGGAGTTTACTGATTGGGTTAAAGTCCGGTCGTTTGCAAGAGAATTTTGGAGCAAGAGATGA | 24 | 0 | 0 | 0 | 20 | 4 | 0 | 0 | 24 | 0 | 0 | 0 | 4 | 20 | 0 | 0 | 24 | 0 | 0 | 0 | The grade of pesticide damage/plant: grade 0 ([3]; flumioxazin 240 g ai/ha (4×)): 24 plant; The grade of pesticide damage/plant: grade 1 ([3]; flumioxazin 240 g ai/ha (4×)): 0 plant; The grade of pesticide damage/plant: grade 2 ([3]; flumioxazin 240 g ai/ha (4×)): 0 plant; The grade of pesticide damage/plant: grade 3 ([3]; flumioxazin 240 g ai/ha (4×)): 0 plant; The grade of pesticide: grade 0 ([4]; sulfentrazone 450 g ai/ha (1×)): 24; The grade of pesticide: grade 1 ([4]; sulfentrazone 450 g ai/ha (1×)): 0; The grade of pesticide: grade 2 ([4]; sulfentrazone 450 g ai/ha (1×)): 0; The grade of pesticide: grade 3 ([4]; sulfentrazone 450 g ai/ha (1×)): 0; The grade of pesticide: grade 0 ([4]; sulfentrazone 900 g ai/ha (2×)): 22; The grade of pesticide: grade 1 ([4]; sulfentrazone 900 g ai/ha (2×)): 2; The grade of pesticide: grade 2 ([4]; sulfentrazone 900 g ai/ha (2×)): 0; The grade of pesticide: grade 3 ([4]; sulfentrazone 900 g ai/ha (2×)): 0
PPO9A: nucleotide sequence encoding microbial protoporphyrinogen oxidase PPO9 (SEQ ID NO:9), Arabidopsis thaliana/soybean common codon usage bias (nucleic acid, The nucleotide sequence of PPO9A) DNA: ATGGAGAAAGTTCTTCTACTGCATTCTTCCTCTGATGGTCAGACAGTGAAGATTCTCAGACATATTGAAACAACATTAGGTGGTGATTACCAATGTGAGCTTGTGGATTTGAATACTCTGCCGACTGTTGATTTTGCTGATTATGACCGTGTCTTAGTAGGCGCGAGTATACGCTATGGGCACCTCAACAAGAAACTCTACCAGTTTATAGAGAGATACAGAGATGAATTGGACCAAAACAAAGTAGGTTTCTTCTGCGTGAATCTTACTGCAAGGAAAGAAGGAAAGAATACGCCTGAGACTAGCGTTTACATGAAGACCTTTTTGAAGAAGTCGCCATGGTGTCCAAAATTGCAAGAAGTTTTCGCTGGAGCTCTTCGTTATCCTCGGTATGGATGGTTTGATAGGGTCATGATTCAGTTCATCATGAGAATCACGGGGGGAGAAACCGACACATCAAAAGAGGTTGAGTATACTGATTGGCAAAAGGTTGAAGCTTTTGCAGCCCGATTCAAACATTACTGA | 24 | 0 | 0 | 0 | 20 | 4 | 0 | 0 | 24 | 0 | 0 | 0 | 0 | 24 | 0 | 0 | 24 | 0 | 0 | 0 | The grade of pesticide damage/plant: grade 0 ([3]; flumioxazin 240 g ai/ha (4×)): 24 plant; The grade of pesticide damage/plant: grade 1 ([3]; flumioxazin 240 g ai/ha (4×)): 0 plant; The grade of pesticide damage/plant: grade 2 ([3]; flumioxazin 240 g ai/ha (4×)): 0 plant; The grade of pesticide damage/plant: grade 3 ([3]; flumioxazin 240 g ai/ha (4×)): 0 plant; The grade of pesticide: grade 0 ([4]; sulfentrazone 450 g ai/ha (1×)): 24; The grade of pesticide: grade 1 ([4]; sulfentrazone 450 g ai/ha (1×)): 0; The grade of pesticide: grade 2 ([4]; sulfentrazone 450 g ai/ha (1×)): 0; The grade of pesticide: grade 3 ([4]; sulfentrazone 450 g ai/ha (1×)): 0; The grade of pesticide: grade 0 ([4]; sulfentrazone 900 g ai/ha (2×)): 18; The grade of pesticide: grade 1 ([4]; sulfentrazone 900 g ai/ha (2×)): 6; The grade of pesticide: grade 2 ([4]; sulfentrazone 900 g ai/ha (2×)): 0; The grade of pesticide: grade 3 ([4]; sulfentrazone 900 g ai/ha (2×)): 0
PPO5A: nucleotide sequence encoding microbial protoporphyrinogen oxidase PPO5 (SEQ ID NO:5), Arabidopsis thaliana/soybean common codon usage bias (nucleic acid, PPO5A Nucleotide Sequence) DNA: ATGAAGACTCTTATCCTCTACTTCACAACAGACGGCCAAACGAAAAAGATTGCCGAGAGACTGGCTGATGTGATTACTCATGAAGTGGAGCTAATCTCCTTGAAAGATCAAGCTGTTGATTTTGCTCAGAAGATGGCTAATGTTGACCAAGTAGTCATTGGAGCGAGTATAAGGTATGGTCACTTCAGCCCTCTTGTTTATCAGTTTATTGAACAACATTATGCAATGTTGAATGAGAAGAAAACCGCTTTTTATGGAGTGAATCTCACAGCAAGGAAAGCAAATCGAAACACCCCAACCACAAATACTTACATCCGGAACTTCTTAGCAAAGGTGAAATGGCAACCTAACTATGTTGAGGTCATAGCTGGTGCCTTGTTTTACCCGCGTTACAGATTCATTGATAGAATGATGATTCGCTTCATCATGAAAGTAACGAAAGGAGAAACTGATGTTTCAAAAGAATATGAATACACAAACTGGCAGCAAGTTGAAGAGTTTGGGAAGAAGCTTTCTGATCAGTTAATATGA | 24 | 0 | 0 | 0 | 22 | 2 | 0 | 0 | 24 | 0 | 0 | 0 | 0 | 24 | 0 | 0 | 24 | 0 | 0 | 0 | The grade of pesticide damage/plant: grade 0 ([3]; flumioxazin 240 g ai/ha (4×)): 21 plant; The grade of pesticide damage/plant: grade 1 ([3]; flumioxazin 240 g ai/ha (4×)): 3 plant; The grade of pesticide damage/plant: grade 2 ([3]; flumioxazin 240 g ai/ha (4×)): 0 plant; The grade of pesticide damage/plant: grade 3 ([3]; flumioxazin 240 g ai/ha (4×)): 0 plant; The grade of pesticide: grade 0 ([4]; sulfentrazone 450 g ai/ha (1×)): 24; The grade of pesticide: grade 1 ([4]; sulfentrazone 450 g ai/ha (1×)): 0; The grade of pesticide: grade 2 ([4]; sulfentrazone 450 g ai/ha (1×)): 0; The grade of pesticide: grade 3 ([4]; sulfentrazone 450 g ai/ha (1×)): 0; The grade of pesticide: grade 0 ([4]; sulfentrazone 900 g ai/ha (2×)): 20; The grade of pesticide: grade 1 ([4]; sulfentrazone 900 g ai/ha (2×)): 4; The grade of pesticide: grade 2 ([4]; sulfentrazone 900 g ai/ha (2×)): 0; The grade of pesticide: grade 3 ([4]; sulfentrazone 900 g ai/ha (2×)): 0
